From the supplement of paper PMC9170038

Tested on: MS2 coat protein
Assay: apparent KD of MS2 coat protein; designed switch direction (-1 OFF switch, 1 ON switch): -1; higher = weaker reporter binding
Summary of the method: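 The apparent KD reported per design is the median over clusters of curve fits to normalised cluster fluorescence. The RNA switches were transcribed on Illumina chips by stalled E. coli RNA polymerase. SNAP-549-labelled MS2 coat protein was titrated from 0.7 or 1.5 nM, doubling up to 3 µM, in Tris-HCl pH 7.5 buffer containing KCl, MgCl2, BSA, DTT, tRNA and Tween-20, with no input, 200 uM small-molecule ligand, or an oligonucleotide input.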

[1] = input ligand: microRNA oligo, concentration not stated
[2] = Eterna round: R95, input ligand: FMN 200 uM
[3] = Eterna round: R95, input ligand: microRNA oligo, concentration not stated
[4] = Eterna round: R95, input ligand: none

Sequence	apparent KD of MS2 coat protein (input ligand: FMN 200 uM) [nM]	apparent KD of MS2 coat protein (input ligand: none) [nM]	apparent KD of MS2 coat protein [1] [nM]	apparent KD of MS2 coat protein [2] [nM]	apparent KD of MS2 coat protein [3] [nM]	apparent KD of MS2 coat protein [4] [nM]
GUAGAGUCAGGAUAUACGAGAUCGAAAGAUCAGUGGUCCUUACAUGAGGAUCACCCAUGUAGAAGGGACUCUAC [Omei mod 12 to Eli's favorate candidate (ch.parushev)] (Eterna round: R97, puzzle: Exclusion 2)	39.6	790	–	–	–	–
GAAAACGCAGAGGAUAUUCCAGAUCUAAGCUGCGAAGAAGGCUGCACAUGAGGAUCACCCAUGUGGUCUUUAAA [Maoned] (Eterna round: R96, puzzle: Exclusion 6)	–	–	13.7	–	–	–
UUUGCAAGCUUUAGAUCCCACAUGAGGAUCACCCAUGUUGCUGCCGUGAGGUAGCUUUUAACUAAUGCUCGUCUUAU [JL TOV1 3.45] (Eterna round: R97, puzzle: Sensor, turn-off variant 1)	88.2	163	–	–	–	–
GUGACUGAUGUCAGGAUAUCCGGUGCUAAAGUACAGGAGAAGGGACAUGAGGAUCACCCAUGUAACUUAGCCAG [BmEX4 B.7] (Eterna round: R97, puzzle: Brourd's mod of Exclusion 4)	23.2	15.4	–	–	–	–
GGGAUGUCAGGAUAUCCAAAAGUCCGCCAGUACGGCAGACAGGAGAAGGGACAUGAGGAUCACCCAUGUAAAGA [Leinrete] (puzzle: Exclusion 4)	–	–	–	89	32.6	38.3
CACCCUUCAGGAUAUACAUGAGGAUCACCCAUGUGUUCCAGCUAGGAAACUAGCAAAUGUAGAAGGGAAGGGUG [Mat - Exclusion 3 - JL Mod - D5] (Eterna round: R97, puzzle: Exclusion 3)	452	108	–	–	–	–
GACCUACAUGAGGAUCACCCAUGUCAGGAUAUGUGGCGGAGUACGAACAGUCCAAGCGACAGAAGGGACAACAG [Eternabot (Original) Solution 24] (Eterna round: R97, puzzle: Exclusion 1)	27.8	25.3	–	–	–	–
AUCUGCACGCUGCGGUCCUACAUGAGGAUCACCCAUGUGGUCUGGUGGCGUGGGUCACCGGACUUGGCUCGUCUUGC [salish99_S_TOV1_R5_054] (Eterna round: R97, puzzle: Sensor, turn-off variant 1)	19.8	19.6	–	–	–	–
UACAUGAGGAUCACCCAUGUUUUGUCGUGUUUGGUACCCGUUUAGGAUAUCGUGUUAUUGGACCGCGAGAAGGAGAGUAUCAUU [Excl-NG3-LRO06] (Eterna round: R96, puzzle: Exclusion NG 3)	32.2	39.9	18.4	–	–	–
AGCCCUAAUGUCAGGAUAUGCAUCCUUAAUGGACGGCAGAAGGGACAUGAGGAUCACCCAUGUAAAUAGAAAUU [Direised] (puzzle: Brourd's mod of Exclusion 4)	–	–	–	–	31.4	–
CCGGAUUAGGAGGAUAUAGGAGUCGAUAGACACCUAGAAGGCCUGACAUGAGGAUCACCCAUGUGUCCUACCGG [Mod of Eli 17 - Jieux - Exclusion 6] (Eterna round: R97, puzzle: Exclusion 6)	48.6	22.9	–	–	–	–
AGAGAAUAGUCAGGAUAUGUGAAUAGAUAGAGAACAGAAGGGACACAUGAGGAUCACCCAUGUGAAGUCUUGAGGCUGCAUGGA [Prohibition 22 - Jieux - Exclusion NG 1] (Eterna round: R96, puzzle: Exclusion NG 1)	43.9	39	24.1	–	–	–
CUGAGCUGAGGAUAUACAUGAGGAUCACCCAUGUUAAGCAGCUAGUGAAGAAGUAGAUGUAGAAGGCAGUUCGG [Mod of JL 21 - Jieux - Exclusion 3] (Eterna round: R97, puzzle: Exclusion 3)	75.2	21	–	–	–	–
CAUACUGAAGUUAGGAUAUGCGGCCGAAUACGGGUGUAGAAGGGACAUGAGGAUCACCCAUGUAGAUAGUAAAG [EX-4 Malc #16] (puzzle: Brourd's mod of Exclusion 4)	–	–	–	27.3	24.9	20.1
ACAUGUCAUCGAGGAUAUUGGACACAUGAGGAUCACCCAUGUACUCGGAGGCUCUACCAUGAGUUCGAGAAGGCGAUGUACAUG [Ex NG2 #76] (Eterna round: R96, puzzle: Exclusion NG 2)	651	365	316	–	–	–
GAGAAACAUGAGGAUCACCCAUGUGAGGAUAUGCGUACGUUGUCCGUAGGCGACGUGCGCAGAAGGCGCAAAAG [Mat - Mod of JL D87] (puzzle: Exclusion 1)	–	–	–	59	53.5	96
GAUCAUGCAGGAUAUACAUUAACCAUGAAAACAUGGUUGUCACAUGAGGAUCACCCAUGUAGAAGGGCAUGAUC [Omei Ex2 A6] (Eterna round: R97, puzzle: Exclusion 2)	37.2	23.5	–	–	–	–
